For data set [1], the system named is MCF7. Nature of the data set: percentage of EdU-negative (G0-arrested) nuclei per well, 72 h; higher = more G0 arrest. The settings on record: reference: sequence is the full UniProt precursor, the tested protein was the secreted form or ectodomain.
Data set [2] concerns hTERT-HMEC. The data set is described as above. To be noted: reference: sequence is the full UniProt precursor, the tested protein was the secreted form or ectodomain.
[3] abbreviates: protein concentration 0.01175 µM.
Where [4] appears, read: protein concentration 0.1175 µM.
[5] abbreviates: protein concentration 0.0225 µM.
The mark [6] stands for this setting: protein concentration 0.02075 µM.
Setting [7] is: protein concentration 0.2075 µM.
Setting [8] is: protein concentration 0.03125 µM.
Setting [9] is: protein concentration 0.3125 µM.
The mark [10] stands for this setting: protein concentration 0.01075 µM.
Where [11] appears, read: protein concentration 0.1075 µM.

± gives the standard deviation of the averaged measurements.
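Further: secreted proteins added to cultured cells, EdU pulse at the end, nuclei found by Hoechst imaging, EdU status from nuclear versus surrounding ring intensity ratio, PBS as neutral control.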

As to “MEKILFYLFLIGIAVKAQICPKRCVCQILSPNLATLCAKKGLLFVPPNIDRRTVELRLADNFVTNIKRKDFANMTSLVDLTLSRNTISFITPHAFADLRNLRALHLNSNRLTKITNDMFSGLSNLHHLILNNNQLTLISSTAFDDVFALEELDLSYNNLETIPWDAVEKMVSLHTLSLDHNMIDNIPKGTFSHLHKMTRLDVTSNKLQKLPPDPLFQRAQVLATSGIISPSTFALSFGGNPLHCNCELLWLRRLSREDDLETCASPPLLTGRYFWSIPEEEFLCEPPLITRHTHEMRVLEGQRATLRCKARGDPEPAIHWISPEGKLISNATRSLVYDNGTLDILITTVKDTGAFTCIASNPAGEATQIVDLHIIKLPHLLNSTNHIHEPDPGSSDISTSTKSGSNTSSSNGDTKLSQDKIVVAEATSSTALLKFNFQRNIPGIRMFQIQYNGTYDDTLVYRMIPPTSKTFLVNNLAAGTMYDLCVLAIYDDGITSLTATRVVGCIQFTTEQDYVRCHFMQSQFLGGTMIIIIGGIIVASVLVFIIILMIRYKVCNNNGQHKVTKVSNVYSQTNGAQIQGCSVTLPQSVSKQAVGHEENAQCCKATSDNVIQSSETCSSQDSSTTTSALPPSWTSSTSVSQKQKRKTGTKPSTEPQNEAVTNVESQNTNRNNSTALQLASRPPDSVTEGPTSKRAHIKPNALLTNVDQIVQETQRLELI [G3V364]”, the “percentage of EdU-negative” value was determined as 25.9 ± 2.7% in data set [1] (setting [3]), 27.1 ± 1.2% in data set [1] (setting [4]), 4.44 ± 0.44% in data set [2] (setting [3]) and 6.29 ± 1.1% in data set [2] (setting [4]).
Turning to “MEKILILLLVALSVAYAAPGPRGIIINLENGELCMNSAQCKSNCCQHSSALGLARCTSMASENSECSVKTLYGIYYKCPCERGLTCEGDKTIVGSITNTNFGICHDAGRSKQ”, the “percentage of EdU-negative” value stood at 23.9 ± 2.4% in data set [1] (setting [5]), 28.37 ± 0.035% in data set [1] (protein concentration 0.225 µM), 5.19 ± 0.81% in data set [2] (setting [5]) and 6.85 ± 1.2% in data set [2] (protein concentration 0.225 µM).
In the same order, the values of “MEKIPVSAFLLLVALSYTLARDTTVKPGAKKDTKDSRPKLPQTLSRGWGDQLIWTQTYEEALYKSKTSNKPLMIIHHLDECPHSQALKKVFAENKEIQKLAEQFVLLNLVYETTDKHLSPDGQYVPRIMFVDPSLTVRADITGRYSNRLYAYEPADTALLLDNMKKALKLLKTEL” are 25.2 ± 1.5%, 25.7 ± 0.74%, 4.87 ± 0.93% and 7.88 ± 0.32%.
Regarding “MEKKWKYCAVYYIIQIHFVKGVWEKTVNTEENVYATLGSDVNLTCQTQTVGFFVQMQWSKVTNKIDLIAVYHPQYGFYCAYGRPCESLVTFTETPENGSKWTLHLRNMSCSVSGRYECMLVLYPEGIQTKIYNLLIQTHVTADEWNSNHTIEIEINQTLEIPCFQNSSSKISSEFTYAWSVENSSTDSWVLLSKGIKEDNGTQETLISQNHLISNSTLLKDRVKLGTDYRLHLSPVQIFDDGRKFSCHIRVGPNKILRSSTTVKVFAKPEIPVIVENNSTDVLVERRFTCLLKNVFPKANITWFIDGSFLHDEKEGIYITNEERKGKDGFLELKSVLTRVHSNKPAQSDNLTIWCMALSPVPGNKVWNISSEKITFLLGSEISSTDPPLSVTESTLDTQPSPASSVSPARYPATSSVTLVDVSALRPNTTPQPSNSSMTTRGFNYPWTSSGTDTKKSVSRIPSETYSSSPSGAGSTLHDNVFTSTARAFSEVPTTANGSTKTNHVHITGIVVNKPKDGMSWPVIVAALLFCCMILFGLGVRKWCQYQKEIMERPPPFKPPPPPIKYTCIQEPNESDLPYHEMETL”, the “percentage of EdU-negative” value in data set [1] (setting [6]) is 25.5 ± 0.86%; in data set [1] (setting [7]), 29.5 ± 0.78%; in data set [2] (setting [6]), 4.86 ± 1%; in data set [2] (setting [7]), 12.1 ± 1.3%.
In the case of “MEKLLCFLVLTSLSHAFGQTDMSRKAFVFPKESDTSYVSLKAPLTKPLKAFTVCLHFYTELSSTRGYSIFSYATKRQDNEILIFWSKDIGYSFTVGGSEILFEVPEVTVAPVHICTSWESASGIVEFWVDGKPRVRKSLKKGYTVGAEASIILGQEQDSFGGNFEGSQSLVGDIGNVNMWDFVLSPDEINTIYLGGPFSPNVLNWRALKYEVQGEVFTKPQLWP”, the “percentage of EdU-negative” value in data set [1] (setting [8]) was found to be 24.1 ± 2.6%; in data set [1] (setting [9]), 25.3 ± 0.79%; in data set [2] (setting [8]), 4.41 ± 0.15%; in data set [2] (setting [9]), 5.8 ± 1.1%.
Consider “MEKMLAGCFLLILGQIVLLPAEARERSRGRSISRGRHARTHPQTALLESSCENKRADLVFIIDSSRSVNTHDYAKVKEFIVDILQFLDIGPDVTRVGLLQYGSTVKNEFSLKTFKRKSEVERAVKRMRHLSTGTMTGLAIQYALNIAFSEAEGARPLRENVPRVIMIVTDGRPQDSVAEVAAKARDTGILIFAIGVGQVDFNTLKSIGSEPHEDHVFLVANFSQIETLTSVFQKKLCTAHMCSTLEHNCAHFCINIPGSYVCRCKQGYILNSDQTTCRIQDLCAMEDHNCEQLCVNVPGSFVCQCYSGYALAEDGKRCVAVDYCASENHGCEHECVNADGSYLCQCHEGFALNPDKKTCTKIDYCASSNHGCQHECVNTDDSYSCHCLKGFTLNPDKKTCRRINYCALNKPGCEHECVNMEESYYCRCHRGYTLDPNGKTCSRVDHCAQQDHGCEQLCLNTEDSFVCQCSEGFLINEDLKTCSRVDYCLLSDHGCEYSCVNMDRSFACQCPEGHVLRSDGKTCAKLDSCALGDHGCEHSCVSSEDSFVCQCFEGYILREDGKTCRRKDVCQAIDHGCEHICVNSDDSYTCECLEGFRLAEDGKRCRRKDVCKSTHHGCEHICVNNGNSYICKCSEGFVLAEDGRRCKKCTEGPIDLVFVIDGSKSLGEENFEVVKQFVTGIIDSLTISPKAARVGLLQYSTQVHTEFTLRNFNSAKDMKKAVAHMKYMGKGSMTGLALKHMFERSFTQGEGARPLSTRVPRAAIVFTDGRAQDDVSEWASKAKANGITMYAVGVGKAIEEELQEIASEPTNKHLFYAEDFSTMDEISEKLKKGICEALEDSDGRQDSPAGELPKTVQQPTESEPVTINIQDLLSCSNFAVQHRYLFEEDNLLRSTQKLSHSTKPSGSPLEEKHDQCKCENLIMFQNLANEEVRKLTQRLEEMTQRMEALENRLRYR”, for which the “percentage of EdU-negative” value in data set [1] (setting [10]) came to 29.2 ± 1.9%; in data set [1] (setting [11]), 24.3 ± 0.75%; in data set [2] (setting [10]) it was 5.94 ± 0.34%; in data set [2] (setting [11]) it was 6.49 ± 0.6%.
